Results taken from patent publication US20110150980A1, “CGRP ANALOG” (VasoGenix Pharmaceuticals, Inc., priority 2009, published 2011).
Bridges are numbered along the chain shown (N, C = ends). Where no end group is shown, it is not given here.

Key:
[1] = tested on: sedated Non Human Primate; assay: IV infusion in the sedated Non Human Primate: blood pressure and heart rate (Example 1); format: in vivo; details: at the 28 ng dose
[2] = biological target: T1, CRLR/RAMP1 receptor (Homo sapiens, UniProt O60894+Q16602); assay: CRE-luciferase assay in HEK293T cells transfected with CRLR and RAMP1; format: cell-based; details: compared to h-α-CGRP and h-β-CGRP as controls
T1 construct: All of the full-length cDNAs were subcloned into pcDNA3.1 expression vectors; expressed in transfected cells; host or cells: HEK293T, transient calcium phosphate transfection, pcDNA3.1 vectors
Excerpt: The expression vectors for RAMP1, RAMP2, RAMP3, CRLR, CRE-Luc and SRE-Luc were constructed as previously described (McLatchie L. M., et al. (1998) Nature 393:333-339). Human CRLR, RAMP1, and RAMP2 full-length cDNAs were cloned by RT-PCR using RNA obtained from HEK293T cells and CRLR, RAMP1, and RAMP2-specific primers. Human RAMP3 full-length cDNAs were cloned by RT-PCR using RNA from human kidney and RAMP3 specific primers. All of the full-length cDNAs were subcloned into pcDNA3.1 expression vectors.
Human embryonic kidney 293T cells (HEK293T) were maintained in Dulbecco's modified Eagle's medium supplemented with 10% fetal calf serum, 2 mM glutamine, […], at 37° C. in a humidified atmosphere of 95% air and 5% CO2. Transient transfections were performed using calcium phosphate co-precipitation (Mellon P. L., et al. (1981) Cell 27:279-288). Cells in six-well plates or 100-mm Petri dishes were grown to 70% confluence and transfected with 0.1 μg of DNA for CRLR, 0.05 μg for RAMPs or 1 μg for CRE-Luc and SRE-Luc per cm^2. The total amount of DNA transfected in each condition was kept constant by adding empty pcDNA3.1 vector when needed. Twenty hours after transfection, the medium was replaced with fresh medium containing 5 mM sodium butyrate for 24 h and then replaced for an additional 24 h with fresh medium without sodium butyrate. All of the experiments were performed 72 h after transfection to allow correct glycosylation and cell surface targeting of CRLR and RAMPs.
After exposure to various concentrations of CGRP or the CGRP analogs, the cells were lysed and assayed for CRE- or SRE-luciferase activity using the luciferase assay system (Promega), and luminescence was measured using a 96-well luminometer.
The mechanism of action for CGRP at the CRLR/RAMP1 receptor is known to up-regulate cAMP through the gs pathway, and to a lesser extent [Ca^2+] through the gq pathway. […] It is the cAMP pathway that is the primary mechanism of action of CGRP for vasodilation, cardio/renoprotection and immunomodulation.

[3] = biological target: CRLR/RAMP1 receptor (human, UniProt Q16602 23-461; O60894 27-148); assay: cell-based or functional assay
Sequence of CRLR/RAMP1 receptor (human, UniProt Q16602 23-461; O60894 27-148) (Q16602 23-461, chain 1 of 2): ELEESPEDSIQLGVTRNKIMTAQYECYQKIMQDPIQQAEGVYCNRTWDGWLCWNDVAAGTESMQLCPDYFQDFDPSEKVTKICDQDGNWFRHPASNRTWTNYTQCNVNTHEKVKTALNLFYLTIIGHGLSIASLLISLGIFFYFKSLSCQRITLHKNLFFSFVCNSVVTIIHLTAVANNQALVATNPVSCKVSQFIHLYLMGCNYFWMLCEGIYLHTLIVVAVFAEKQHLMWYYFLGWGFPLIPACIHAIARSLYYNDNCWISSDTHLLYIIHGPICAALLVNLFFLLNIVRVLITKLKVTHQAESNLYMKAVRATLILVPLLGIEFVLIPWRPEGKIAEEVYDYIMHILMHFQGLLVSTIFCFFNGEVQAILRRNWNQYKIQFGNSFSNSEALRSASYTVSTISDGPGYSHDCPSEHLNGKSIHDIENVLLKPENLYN
Sequence of CRLR/RAMP1 receptor (human, UniProt Q16602 23-461; O60894 27-148) (O60894 27-148, chain 2 of 2): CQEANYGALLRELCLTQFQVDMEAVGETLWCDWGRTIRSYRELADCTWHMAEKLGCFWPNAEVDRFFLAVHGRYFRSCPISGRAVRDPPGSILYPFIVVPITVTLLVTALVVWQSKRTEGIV

T1 sequence (Q16602 23-461): as the sequence (Q16602 23-461, chain 1 of 2) above
T1 sequence (O60894 27-148): as the sequence (O60894 27-148, chain 2 of 2) above

Row | Molecule | CRE-Luciferase assay: concentration at which receptors were saturated [3] | CRE-Luciferase activity at 10^-10 molar, fold over analogs III and V, h-α-CGRP and h-β-CGRP [3] | Heart rate (HR) effect [1] | activity and potency in binding to the CGRP receptor, CRE-Luciferase assay [2]
1 | Cyc-ACDTATCVTHRLAGLLSRSGGVVKSNFVPTNVGSKAF-NH2 (disulfide 2-7 (inferred)) [Peptide III] |  |  | increased heart rate but less than CGRP | as equally active and potent as h-α-CGRP and h-β-CGRP
2 | ACDTATCVTHRLAGLLSRSGGVVKSNFVPTNVGSKAF-NH2 (disulfide 2-7 (inferred); also: acetate salt) [Peptide III, [Ser25] h-α-CGRP] | 100 nM |  |  | 

Second part, led by results:

Row | CRE-Luciferase assay: concentration at which receptors were saturated [3] | CRE-Luciferase activity at 10^-10 molar, fold over analogs III and V, h-α-CGRP and h-β-CGRP [3] | Molecule | Heart rate (HR) effect [1] | activity and potency in binding to the CGRP receptor, CRE-Luciferase assay [2]
3 | 100 nM |  | ACNTATCVTHRLAGLLSRSGGVVKSNFVPTNVGSKAF-NH2 (disulfide 2-7 (inferred); also: acetate salt) [Peptide V, [Asn3, Ser25] h-α-CGRP] |  | 
4 | 100 nM | 1.5 fold | ACDTATCVTHRLADLLSRSGGVVKSNFVPTNVGSKAF-NH2 (disulfide 2-7 (inferred); also: acetate salt) [Peptide IX, [Asp14, Ser25] h-α-CGRP] |  | 
